Ends that are not written are not given here. * marks the point of attachment. LacNAc = N-acetyllactosamine (disaccharide N-linked to the Asn side chain), CC(=O)N[C@@H]1[C@@H](O)[C@H](O[C@@H]2O[C@H](CO)[C@H](O)[C@H](O)[C@H]2O)[C@@H](CO)O[C@H]1*; βGlcNAc = CC(=O)N[C@@H]1[C@@H](O)[C@H](O)[C@@H](CO)O[C@H]1*
T1: Q11
T1 peptide: Ac-QQKFQFQFEQQ-NH2


Experiments:
[1] = target: the molecule itself; assay: circular dichroism + transmission electron microscopy
Q11 = target: T1, Q11; assay: co-sedimentation

Binder | binding result [1] | binding result (Q11)
N(LacNAc)SGSGQQKFQFQFEQQ-NH2 [LacNAc-Q11] | binds | –
N(βGlcNAc)SGSGQQKFQFQFEQQ-NH2 [GlcNAc-Q11] | binds | binds

Reference: article PMC4610397 (Cellular and molecular bioengineering, 2015)
